Measurements: publication doi:10.1101/181321 (bioRxiv, 2017)

How the values were obtained:
[1] = target: C-terminal biotinylated histone H3 peptide (1 to 35 a.a.) (UniProt P68431); assay: SPR
[2] = target: T1, C-terminal region of human Importin4 (C-Importin4, residues 668 to 1081) (human, UniProt Q8TEX9 668-1081); assay: SPR
T1 sequence: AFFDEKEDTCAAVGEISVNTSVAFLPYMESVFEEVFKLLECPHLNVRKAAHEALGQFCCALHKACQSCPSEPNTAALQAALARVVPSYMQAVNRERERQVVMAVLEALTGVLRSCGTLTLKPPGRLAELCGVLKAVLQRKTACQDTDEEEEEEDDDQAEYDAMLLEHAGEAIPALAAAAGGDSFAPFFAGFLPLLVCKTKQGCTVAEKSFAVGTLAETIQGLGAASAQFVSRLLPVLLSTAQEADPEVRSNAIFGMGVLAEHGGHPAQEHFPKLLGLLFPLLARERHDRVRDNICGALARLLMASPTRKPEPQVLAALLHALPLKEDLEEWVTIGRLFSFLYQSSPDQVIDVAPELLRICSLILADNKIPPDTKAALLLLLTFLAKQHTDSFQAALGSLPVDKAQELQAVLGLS

Molecule “C-terminal region of human Importin4 (C-Importin4, residues 668 to 1081) (from UniProt Q8TEX9 668-1081) (domain or fragment)” has a Kd [1] of 1600 nM.

ARTKQTARKSTGGKAPRK [histone H3 peptide (1-18 a.a.)]: binds [2].
